From publication doi:10.1101/2025.07.08.663041

Key:
Caveolin-1 I121C 98W = Caveolin-1 I121C 98W (UniProt Q03135)
Caveolin-1 L125C 98W = Caveolin-1 L125C 98W (UniProt Q03135)

stoichiometry N (Caveolin-1 I121C 98W) | stoichiometry N (Caveolin-1 L125C 98W) | Substance
2 |  | Caveolin-1 I121C 98W (from UniProt Q03135 1-178) (natural protein)
 | 2 | Caveolin-1 L125C 98W (from UniProt Q03135 1-178) (natural protein)
